In patent US20030148462A1, “Dual inhibition of sister chromatid separation at metaphase” (President and fellows of Harvard College, priority 2001, published 2003):

Assays:
separase = target: T1, separase (Homo sapiens, UniProt Q14674); assay: Re-inhibition of pre-activated separase by recombinant securin (cohesin hSCC1 cleavage); assay type: biochemical; conditions: separase 4 nM, one hour on ice
T1 construct: Full-length human separase was PCR-amplified from a human fetal thymus cDNA library; made in house
T1 sequence (Q14674 1-1486): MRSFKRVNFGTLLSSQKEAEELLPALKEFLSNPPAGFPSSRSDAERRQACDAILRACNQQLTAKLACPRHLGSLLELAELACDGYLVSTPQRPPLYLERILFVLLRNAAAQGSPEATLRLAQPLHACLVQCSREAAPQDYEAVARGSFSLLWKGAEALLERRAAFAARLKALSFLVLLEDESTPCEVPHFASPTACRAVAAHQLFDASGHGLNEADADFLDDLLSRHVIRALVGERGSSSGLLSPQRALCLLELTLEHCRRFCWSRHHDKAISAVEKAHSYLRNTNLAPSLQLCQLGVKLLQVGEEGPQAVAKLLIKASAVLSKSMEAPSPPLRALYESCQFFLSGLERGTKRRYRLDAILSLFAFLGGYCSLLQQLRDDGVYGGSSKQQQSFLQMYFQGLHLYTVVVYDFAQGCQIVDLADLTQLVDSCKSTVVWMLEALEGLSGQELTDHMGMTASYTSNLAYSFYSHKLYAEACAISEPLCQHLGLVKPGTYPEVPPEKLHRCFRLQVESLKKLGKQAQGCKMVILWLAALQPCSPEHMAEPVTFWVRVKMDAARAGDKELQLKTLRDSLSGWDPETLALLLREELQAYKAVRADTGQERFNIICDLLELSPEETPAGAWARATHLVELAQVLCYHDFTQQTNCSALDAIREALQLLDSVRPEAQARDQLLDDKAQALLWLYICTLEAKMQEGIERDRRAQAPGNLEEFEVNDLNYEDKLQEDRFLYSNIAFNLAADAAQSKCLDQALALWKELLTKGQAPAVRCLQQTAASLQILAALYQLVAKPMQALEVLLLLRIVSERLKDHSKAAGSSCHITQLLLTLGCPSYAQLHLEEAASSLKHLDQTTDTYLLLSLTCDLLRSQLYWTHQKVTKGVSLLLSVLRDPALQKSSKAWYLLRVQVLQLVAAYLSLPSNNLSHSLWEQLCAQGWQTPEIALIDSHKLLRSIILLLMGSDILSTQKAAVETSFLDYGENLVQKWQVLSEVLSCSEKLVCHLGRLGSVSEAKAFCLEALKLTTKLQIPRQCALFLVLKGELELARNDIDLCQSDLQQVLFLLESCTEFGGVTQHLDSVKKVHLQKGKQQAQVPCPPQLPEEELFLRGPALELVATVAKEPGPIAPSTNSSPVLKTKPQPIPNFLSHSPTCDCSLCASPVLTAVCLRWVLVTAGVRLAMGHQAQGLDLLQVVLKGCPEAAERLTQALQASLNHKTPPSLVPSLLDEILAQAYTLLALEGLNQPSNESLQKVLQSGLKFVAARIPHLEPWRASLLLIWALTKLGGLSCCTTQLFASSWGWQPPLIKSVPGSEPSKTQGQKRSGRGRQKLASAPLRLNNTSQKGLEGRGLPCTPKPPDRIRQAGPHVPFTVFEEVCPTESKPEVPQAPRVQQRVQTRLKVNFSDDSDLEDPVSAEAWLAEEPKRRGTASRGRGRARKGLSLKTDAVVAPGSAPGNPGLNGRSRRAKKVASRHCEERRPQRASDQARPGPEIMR
T1 sequence (Q14674 1536-2120): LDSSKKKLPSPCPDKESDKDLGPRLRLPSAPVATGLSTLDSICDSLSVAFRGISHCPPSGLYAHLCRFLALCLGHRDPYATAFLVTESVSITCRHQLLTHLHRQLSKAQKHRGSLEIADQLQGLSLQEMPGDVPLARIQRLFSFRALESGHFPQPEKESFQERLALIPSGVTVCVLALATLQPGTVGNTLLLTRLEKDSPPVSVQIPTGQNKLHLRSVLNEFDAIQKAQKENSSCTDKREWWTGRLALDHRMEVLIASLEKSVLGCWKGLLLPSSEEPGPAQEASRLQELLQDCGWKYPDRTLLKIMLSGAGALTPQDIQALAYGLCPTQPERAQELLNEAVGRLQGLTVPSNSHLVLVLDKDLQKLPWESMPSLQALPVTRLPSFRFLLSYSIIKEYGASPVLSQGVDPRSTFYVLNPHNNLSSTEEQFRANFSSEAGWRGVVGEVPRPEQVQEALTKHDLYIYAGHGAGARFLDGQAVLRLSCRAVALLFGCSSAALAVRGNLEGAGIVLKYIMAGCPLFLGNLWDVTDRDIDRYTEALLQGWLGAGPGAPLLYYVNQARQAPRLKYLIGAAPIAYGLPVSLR
Method: FIGS. 7A-7C depict the independent inhibition of separase activity by phosphorylation of separase and by binding of securin. (A) depicts a Western blot (upper panel) and cohesin^hSCC1 cleavage activity using isolated chromosomes as substrate (lower panel). Lane 2: Consecutive treatment of separase with high-Δ90 extract twice. (B) depicts separase that had been pre-activated in low-Δ90 extract that was eluted and incubated with recombinant securin (lanes 2 and 3) or reference buffer (lane 1) for one hour on ice. Subsequently, its cleavage activity towards in vitro translated ^35S-cohesin^hSCC1 was tested (upper panel). The separase concentration in each reaction was 4 nM, as estimated by Coomassie staining. To compare wild type separase with PM-2/4 mutant separase in its ability to bind securin the same experiment was repeated with PM-2/4 (lower panel). Roughly equal separase concentrations in both cases were assured by comparative immunoblotting (see FIG. 4B, lanes 15 and 17). (C) depicts a model for the dual inhibition of separase in metaphase and its activation at anaphase onset. PPase denotes an unknown protein phosphatase that is proposed to act on phosphorylated separase.
To determine whether securin can inhibit separase independent of the phosphorylation state of separase, and whether separase that has already been activated and has therefore cleaved itself be re-inhibited by either of the two inhibitory mechanisms, active separase was generated by treating a securin/separase complex with a low-Δ90 extract (L; FIG. 7) to degrade securin and dephosphorylate separase. […] Active separase on beads was then incubated with either recombinant securin or a high-Δ90 extract and assayed for its ability to cleave cohesin^hSCC1. […]

[1] = target: T2, tagged human separase, wild type, with N-terminal ZZ-TEV4-tag (human, UniProt Q14674 1-2120); assay: affinity-purified complex from transfected 293T cells
T2 construct: It was therefore self-cleaved into about 175 and 55 kDa fragments and dephosphorylated; also called wild type separase; WT

[2] = target: T3, tagged human separase, wild type, with three N-terminal HA tags (human, UniProt Q14674 1-2120); assay: affinity isolation of tagged separase from metaphase-arrested transfected 293T cells, Western blot
T3 construct: also called WT; wild type separase; not shown: three HA tags fused to the amino terminus

[3] = target: T4, catalytically inactive human separase mutant (catalytic cysteine replaced by serine), with three N-terminal … (human, UniProt Q14674 1-2120); assay: affinity isolation of tagged catalytically inactive separase (CS, lane 2) from transfected 293T cells, Western blot
T4 construct: also called CS; not shown: three HA tags fused to the amino terminus

B1: human securin co-expressed with tagged separase in 293T cells (other, UniProt O95997 2-202, looked up)
chain: ATLIYVDKENGEPGTRVVAKDGLKLGSGPSIKALDGRSQVSTPRFGKTFDAPPALPKATRKALGTVNRATEKSVKTKGPLKQKQPSFSAKKMTEKTVKAKSSVPASDDAYPEIEKFFPFNPLDFESFDLPEEHQIAHLPLSGVPLMILDEERELEKLFQLGPPSPVKMPSPPWESNLLQSPSSILSTLDVELPPVCCDIDI
notes: also called associated securin
- Molar excess of securin sufficient to fully suppress cohesin hSCC1 cleavage (separase): ~2.5 fold molar excess
- binding result [1]: binds
- binding result [2]: binds
- binding result [3]: binds
